Results as given in patent US20060288448.
Changes are numbered by the printed parent chain.

Columns and labels:
[1] = test system: T1, Cry8Bb1-ISC-1 88 kDa polypeptide
T1 sequence: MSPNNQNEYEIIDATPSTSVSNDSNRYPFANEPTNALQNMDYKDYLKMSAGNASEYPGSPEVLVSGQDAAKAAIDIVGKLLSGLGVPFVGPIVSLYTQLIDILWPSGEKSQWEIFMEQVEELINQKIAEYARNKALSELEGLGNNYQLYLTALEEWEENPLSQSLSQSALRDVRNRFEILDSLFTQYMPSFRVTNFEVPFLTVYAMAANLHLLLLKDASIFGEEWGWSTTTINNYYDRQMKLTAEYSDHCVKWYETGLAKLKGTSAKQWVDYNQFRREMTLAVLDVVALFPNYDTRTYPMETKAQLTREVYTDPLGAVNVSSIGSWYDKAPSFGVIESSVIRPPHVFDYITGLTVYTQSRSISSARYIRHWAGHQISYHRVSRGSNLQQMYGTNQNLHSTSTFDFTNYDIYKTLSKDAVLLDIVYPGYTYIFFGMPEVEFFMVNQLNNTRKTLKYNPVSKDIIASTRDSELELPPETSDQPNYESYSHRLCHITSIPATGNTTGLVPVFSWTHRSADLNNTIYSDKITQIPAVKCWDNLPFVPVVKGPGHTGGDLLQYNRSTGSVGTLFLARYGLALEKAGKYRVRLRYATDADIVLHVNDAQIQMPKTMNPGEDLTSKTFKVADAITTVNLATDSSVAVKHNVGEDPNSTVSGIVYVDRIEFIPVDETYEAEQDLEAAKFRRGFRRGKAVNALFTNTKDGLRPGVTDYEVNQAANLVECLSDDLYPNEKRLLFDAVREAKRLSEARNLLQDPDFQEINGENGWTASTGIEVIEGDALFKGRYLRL

[2] = test system: T2, Cry8Bb1-K05 88 kDa polypeptide
T2 sequence: T1 sequence with L161F, S162R, Q163R, S164G, L165F, S166R, Q167R, S168G

With chymotrypsin the “proteolytic digestion for 72 h (SDS-PAGE)” value [1] was “the 88 kDa Cry8Bb1-ISC-1 polypeptide was not cleaved within the activation loop to generate the 55 kDa polypeptide” and the “proteolytic digestion for 72 h (SDS-PAGE, N-terminal sequencing)” value [2] was “Cry8Bb1-K05 was cleaved within the loop between helix 3 and 4 of domain I of the toxin molecule to generate a 55 kDa polypeptide”.
trypsin was tested, and the “proteolytic digestion for 72 h (SDS-PAGE)” value [1] was “the 88 kDa Cry8Bb1-ISC-1 polypeptide was not cleaved within the activation loop to generate the 55 kDa polypeptide” and the “proteolytic digestion for 72 h (SDS-PAGE, N-terminal sequencing)” value [2] was “Cry8Bb1-K05 was cleaved within the loop between helix 3 and 4 of domain I of the toxin molecule to generate a 55 kDa polypeptide”.
